Experimental data reported in patent US20120058906A1 (published 2012).

What was measured:
[1] = target: T1, rHuman HGF R/c-MET/Fc Chimera, CF (R&D Systems Cat#358-MT/CF) (human, UniProt P08581 25-932); assay: MSD ECL multi-spot plate; Fab 2.0 nM; blank spot 316;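 further: blank spot per well as comparator with Hit at signal to blank ratio of 4 or more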
T1 construct: also called HGF R/Fc; hepatocyte growth factor receptor; Fc part of the bought chimera not given

[2] = target: T2, rHuman CD44/Fc Chimera, CF (R&D Systems Cat#3660-CD) (human, UniProt P16070 21-220); assay: as above
T2 construct: Fc part of the bought chimera not given

[3] = target: T3, rHuman IGF-1 sR, (IGF-1 sR), CF (R&D Systems Cat#391-GR) (human, UniProt P08069 31-932); assay: as above
T3 construct: also called insulin-like growth factor-1 soluble receptor; IGF-R1

[4] = target: T4, rHuman Erythropoietin R/Fc Chimera, CF (R&D Systems Cat#963-ER) (human, UniProt P19235 25-250); assay: as above
T4 construct: also called EPO R/Fc; Epo R; Fc part of the bought chimera not given
T4 sequence: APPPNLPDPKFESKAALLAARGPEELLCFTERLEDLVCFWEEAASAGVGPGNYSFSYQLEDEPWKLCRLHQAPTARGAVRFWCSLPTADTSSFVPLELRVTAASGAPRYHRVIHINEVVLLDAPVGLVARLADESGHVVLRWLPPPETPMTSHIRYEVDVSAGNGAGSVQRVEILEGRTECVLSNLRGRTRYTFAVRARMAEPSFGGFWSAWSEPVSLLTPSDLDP

[5] = target: T5, rHuman Notch-1/Fc Chimera, CF (R&D Systems Cat#3647-TK) (human, UniProt P46531 19-526); assay: as above
T5 construct: Fc part of the bought chimera not given

[6] = target: T6, rHuman EGF R/Fc Chimera, CF (R&D Systems Cat#344-ER) (human, UniProt P00533 25-645); assay: as above
T6 construct: also called epidermal growth factor receptor; Fc part of the bought chimera not given

[7] = target: T7, Recombinant Human DLL4 (R&D Systems Cat#1506-D4/CF) (human, UniProt Q9NR61 27-524); assay: as above
T7 construct: also called delta-like protein 4

[8] = target: T8, rHuman ErbB2/Fc Chimera, CF (R&D Systems Cat#1129-ER) (human, UniProt P04626 23-652); assay: as above
T8 construct: also called HER2/neu; human epidermal growth factor 2 receptor; Fc part of the bought chimera not given

[9] = target: T9, rHuman P-Cadherin/Fc Chimera, CF (R&D Systems Cat#861-PC) (human, UniProt P22223 108-654); assay: MSD ECL titration, Fab 0.6 nM, blank 226;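 further: blank spot per well as comparator with Hit at signal to blank ratio of 4 or more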
T9 construct: Bought Fc chimera; Fc part of the bought chimera not given

[10] = target: T10, rHuman EGF R/Fc Chimera, CF (R&D Systems Cat#344-ER) (human, UniProt P00533 25-645); assay: ECL (MSD multi-spot), antigen on plate, Fab 500 nM
T10 construct: Bought Fc chimera; also called ErbB-1; not shown: Fc of the bought chimera

[11] = target: T11, rHuman Notch-1/Fc Chimera, CF (R&D Systems Cat#3647-TK) (human, UniProt P46531 19-526); assay: ECL (MSD multi-spot), antigen on plate, Fab 500 nM
T11 construct: Bought Fc chimera; not shown: Fc of the bought chimera

[12] = target: T12, rHuman CD44/Fc Chimera, CF (R&D Systems Cat#3660-CD) (human, UniProt P16070 21-220); assay: ECL (MSD multi-spot), antigen on plate, Fab 500 nM
T12 construct: Bought Fc chimera; not shown: Fc of the bought chimera

[13] = target: T13, rHuman IGF-1 sR (insulin-like growth factor-1 soluble receptor), CF (R&D Systems Cat#391-GR) (human, UniProt P08069 31-932); assay: ECL (MSD multi-spot), antigen on plate, Fab 500 nM
T13 construct: Bought soluble receptor; also called IGF-R1

[14] = target: T14, rHuman P-Cadherin/Fc Chimera, CF (R&D Systems Cat#861-PC) (human, UniProt P22223 108-654); assay: ECL (MSD multi-spot), antigen on plate, Fab 500 nM
T14 construct: Bought Fc chimera; also called CDH3; not shown: Fc of the bought chimera

[15] = target: T15, rHuman HGF R/c-MET/Fc Chimera, CF (R&D Systems Cat#358-MT/CF) (human, UniProt P08581 25-932); assay: ECL (MSD multi-spot), antigen on plate, Fab 500 nM
T15 construct: Bought Fc chimera; also called HGF R/Fc; not shown: Fc of the bought chimera

[16] = target: T16, Recombinant Human DLL4 (R&D Systems Cat#1506-D4/CF) (human, UniProt Q9NR61 27-524); assay: ECL (MSD multi-spot), antigen on plate, Fab 500 nM
T16 construct: Bought recombinant protein; also called delta-like protein 4

[17] = target: T17, rHuman Erythropoietin R/Fc Chimera, CF (R&D Systems Cat#963-ER) (human, UniProt P19235 25-250); assay: ECL (MSD multi-spot), antigen on plate, Fab 500 nM
T17 construct: Bought Fc chimera; also called EPO R/Fc; Epo R; not shown: Fc of the bought chimera
T17 sequence: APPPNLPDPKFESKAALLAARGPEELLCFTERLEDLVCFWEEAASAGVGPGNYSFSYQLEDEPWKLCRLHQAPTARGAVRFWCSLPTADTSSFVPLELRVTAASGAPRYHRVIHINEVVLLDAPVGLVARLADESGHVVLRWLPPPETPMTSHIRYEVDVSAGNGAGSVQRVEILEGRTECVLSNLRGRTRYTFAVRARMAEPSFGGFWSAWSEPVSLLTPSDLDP

[18] = target: T18, rHuman ErbB2/Fc Chimera, CF (R&D Systems Cat#1129-ER) (human, UniProt P04626 23-652); assay: ECL (MSD multi-spot), antigen on plate, Fab 500 nM
T18 construct: Bought Fc chimera; also called HER2/neu; not shown: Fc of the bought chimera

[19] = target: T11, rHuman Notch-1/Fc Chimera, CF (R&D …); assay: ECL (MSD multi-spot), antigen on plate, Fab 5 nM
[20] = target: T17, rHuman Erythropoietin R/Fc Chimera, CF …; assay: ECL (MSD multi-spot), antigen on plate, Fab 5 nM

B1: Fab VH1-8_IGHD2-2*01_IGHJ6*01 & L12_IGKJ1*01 (Fab, V domains shown)
VH: QVQLVQSGAEVKKPGASVKVSCKASGYTFTSYDINWVRQATGQGLEWMGWMNPNSGNTGYAQKFQGRVTMTRNTSISTAYMELSSLRSEDTAVYYCARGGYCSSTSCYADYYYYYGMDVWGQGTTVTVSS
VL: not shown
ECL signal [1]: 356 ECL signal | ECL signal [2]: 447 ECL signal | ECL signal [3]: 367 ECL signal | ECL signal [4]: 433 ECL signal | ECL signal [5]: 539 ECL signal | ECL signal [6]: 424 ECL signal | ECL signal [7]: 605 ECL signal | ECL signal [8]: 382 ECL signal

B2: Fab VH1-46_IGHD6-6*01_IGHJ1*01 & L6_IGKJ1*01 (Fab, V domains shown)
VH: QVQLVQSGAEVKKPGASVKVSCKASGYTFTSYYMHWVRQAPGQGLEWMGIINPSGGSTSYAQKFQGRVTMTRDTSTSTVYMELSSLRSEDTAVYYCAREEYSSSSAEYFQHWGQGTLVTVSS
VL: not shown
notes: Expressed in E. coli as Fab: heavy chain with CH1 plus Flag and His tags from Plasmid A, kappa light chain constant region from Plasmid C; also called Fab No. 1
ECL signal [9]: 321

B3: Fab VH1-46_IGHD6-6*01_IGHJ1*01_S102A_S103P_S104Y_H111Y & L6_IGKJ1*01 (Fab, V domains shown)
VH: QVQLVQSGAEVKKPGASVKVSCKASGYTFTSYYMHWVRQAPGQGLEWMGIINPSGGSTSYAQKFQGRVTMTRDTSTSTVYMELSSLRSEDTAVYYCAREEYAPYSAEYFQYWGQGTLVTVSS
VL: not shown
notes: Fab made in E. coli; The heavy chain also carries CH1 with Flag and His tags from Plasmid A, and the light chain carries kappa CL from Plasmid C
ECL signal [10]: 758 ECL signal | ECL signal [11]: 689 ECL signal | ECL signal [12]: 604 ECL signal | ECL signal [13]: 747 ECL signal | ECL signal [14]: 1200 ECL signal | ECL signal [15]: 841 ECL signal | ECL signal [16]: 106000 ECL signal | ECL signal [17]: 1270 ECL signal | ECL signal [18]: 596 ECL signal | ECL signal [19]: 3230 ECL signal | ECL signal [20]: 3580 ECL signal
